Source: the DeepSol protein solubility set

Experiment: soluble on expression in E. coli; label from the status in PepcDB or PDB records

Soluble on expression in E. coli, not soluble:
MGSDKIHHHHHHMEKVKVKNPIVELDGDEMARVMWKMIKEKLILPYLDIQLVYFDLGIKKRDETDDQITIEAAKAIKKYGVGVKCATITPDAERVKEYNLKKAWKSPNATIRAYLDGTVFRKPIMVKNVPPLVKRWKKPIIIGRHAYGDIYNAVEAKVEGPAEVELVVRNKENKTLLVHKFEGNGVVMAMHNLEKSIRSFAQSCINYAISEKVDIWFATKDTISKVYHAYFKDIFQEEVDKRKEELEKAGVNYRYMLIDDAAAQILRSEGGMLWACMNYEGDIMSDMIASGFGSLGLMTSVLVSPDGVYEFEAAHGTVRRHYYRYLKGEKTSTNPTASIFAWTGAIRKRGELDGTPEVCEFADKLEKAVINTIESGVITKDLQPFTEPPIDKYVTLEEFIDEVKKNLEKLL
MGSDKIHHHHHHMENESKLVEVDEKHLQFRVAREAFVSEQILSGEYEKIFDRCWLYVGHVSEFSKPGDFVTRTIARRNLLVTMGTDNRINAFFNTCPHRGATVCRDRAGNSKNFQCFYHGWVFGCDGNLKSQPGKDRYCADFIASGAGNLVSVPRFDIYAGFCFVSFNAEVEPLPDYLAGAKEYLDLVSRYSESGMAISSGTQEYAIRANWKLLVENSVDGYHAVSTHATYLDYLKNTNGSLSSTKLEGTSYDLGNGHAVLEYTAPWGRPIASWVPLWGEQGKKEIDQIYARLVELHGEDMADRMAHKNRNLLIFPNLVVNDIMAITVRTFYPQAPNYMLVNGWSLAPREESEWAKKFRLSNFLEFLGPGGFATPDDVEALESCQNGFSNYRLVPWSDISKGMGKASPNYDDELQMRAFWTRWNQYISGSPSPQATIRRLPSATAA
MGSDKIHHHHHHMEPVYFTSPTRGRLTEDEMFADMMQFVDANPEAQYKIIIGSDSQARVRTCFVTAVIVHQVGRGARYYYRKKYQRKITSLRQKIFYETALSLETASFIAQRLAANGHADLNVEIHLDIGPNGETRDLIREIVGMVVGSGFAAKIKPYSCGASKVADKYTKSG
MGSDKIHHHHHHMERLCEQVRKVRRWLIDQPFDGILLSEQKNIAWLTGARAYVNLATERSIVFFLITESETVMYCSNIEKERLLAEEIGDTVGEIHVFPWYDPLLAESITQEQSKIGKVVLDREVESAFKAVRSALSPSQVAGYRQLGKLSAAAVEETALGLQRGETELEIAGRLANAAIKRGIEPVVNLVAVDDRVSAYRHPLPTDKRLDRYVMIVLSGRRNGQYISLTRLVHFGVIPIDLKKKHAAVCTIDSRLMHHTRVGQSMGDLFKEMKAAYATVGYLHEWKNHHQGGLTGYVGRERLLQPDAQELIQANEVYAWNPSITGTKSEDTILVTESGPEILTLGKKFPLMTVTVAGCTYERPDILGRNDG
MGSDKIHHHHHHMERTSDYWFMIEPYVHINIANGYMLLYNTLDKETIISNNEKVINLLEELLQDENCGVTILKNEQYRQNDIHSFITNLREKYMGDIIDISLSKGKPIQILPHTNFCNKRNEKYNFIKNANLLHFLNEIIIHLDHILDQDKLIDYLQSMPDNITYSISGDLKHIAKFDKLVDFLNQYNSSKKIICNYINFAIPASVCKNIFLYKIHIHFPIDIKQLIITTQSLKDQNNLFELIFDIASLDDYLKAWEIIEEYQIDKYQFNPIYTGYNIDFFKENVFLKKSDILSTSMSIKDFFIKQMINNNDFGKINIMPNGDVHSNINYPALGNICTHSIFELIQKEIEEGKSWLRVRNQEPCNACIYQWLCPSPSDYEIMIGQTNLCHVNIHNPNCENL
MGSDKIHHHHHHMESLSEGTTAGYQQIHDGIIHLVDSARTETVRSVNALMTATYQEIGRRIVEFEQGGEARAAYGAQLIKRLSKDLCLRYKRGFSAKNLRQMRLFYLFFQHVEIHQTMSGELTPLGIPQTPSAEFPSAKIWQTLSAKSFPLPRSTYVRLLSVKNADARSFYEKETLRCGWSVRQLERQIATQFYERTLLSHDKSAMLQQHAPAETHILPQQAIRDPFVLEFLELKDEYSESDFEEALINHLMDFMLELGDDFAFVGRQRRLRIDDNWFRVDLLFFHRRLRCLLIVDLKVGKFSYSDAGQMNMYLNYAKEHWTLPDENPPIGLVLCAEKGAGEAHYALAGLPNTVLASEYKMQLPDEKRLADELVRTQAVLEEGYRRR
MGSDKIHHHHHHMESQNVSFRVAREDLVTAVAWVARNLPTKPTQPVLRAMLITADDEGLELAGYDYDVSTRVRLSAEVSQPGRIAVAGKLLSEITGSLPNKPVDFRIDGSKAFVTCGSSRFELPLIPLDDYPMLPKLPAGTGSINAKLFTEAVSQVASAAGKDDSLPMLTGVSMEIVGNQINLAATDRFRLALRTFEWEANDPELNVKLLIPARTLLDNARSLDSGLNDSIDIAVGTGDQVGREGLFGVHTDNRETTTRLLDADFPNIAPLLPKEHTAIASVEIAPLVDAIRRVSLVAERNAQIVLHFSEGQVILTAGATEAGHAEETLPCAFTGKELTIAFNPGYLKDGLSVVPTSRAVFGFTEPSRPAIMIPEPEEMPSANENGIFQTPDTYFTYLLMPVRLPG
MGSDKIHHHHHHMETIHFTKVHGSQNDFFLVDEEENHITEWSDEKRANFAIKLCDRKHSLGGADGILYVTKSSEVGPIGQMRVVNSDGSIASMCGNGLRTVARYLLEKHALTDAKVETMKAILDVKKATSLGFDIPTYQVEISPVKFAAETLPMHVGVEKLFNQVIPELDAELAFSAVSVPNPHLITFVDQAVLDSNKQEKLASYLNSENPYFPDGVNVSFVKRLSDDAIYVRTFERGVGFTNACGTAMSACSLIKKMLDNNILETPLNVYNDGGRVQVTAKKDAAGEISLQLIGNATFVSKGSVRYENDIVTELTNEATAEQAQYQALVKEVKEFLKTTE
MGSDKIHHHHHHMETREQAKFFHLDEFSGLSLLQASYHRQRFARHVHETFCIGVIEEGVQRFYRTGGEHVAPKGDIILVNADEIHTGSPGVETGWAYRAIYPHPDLMLLLSRDLINANGTVPWFPEAVVHDPGLAEQFRLVFNLLTRDGDRLLKESLLLSSIASLVMRHGRTPAFARELPSVGQPLRIIKDLIASCPEEDYSLTQLAEMAHLSPWHFLRQFKKQVGLPPHAWLIQARLKRARQLLRRGLPIPVVAARCRFSDQSHFNRHFKSSFGITPGEFIRTLPSLSA
MGSDKIHHHHHHMEYATLGNSGVEVSEVGFGAWVVGTDWWGDRTRDDAIDMVQHALDEDVTFFDTGDVYGHGDSEEIIGEALAEHRDEVTVSTKIGYDFYNNPQAGHGELPKKVTPEWVHTAVDRSLDRLGMDHVELLMLHNANVDEVDEDVLEALDELREEGKVDAIGWALGPSIGWLAEGDAAVANEFDALQTVFNLFEQTPGQHFIDTIREQNADTSVLARVPHSSGLLNEQVTPETELGKGDHRSHRPSEWYETGWEKVEEIRFLERDGARTMGQAAIQWLLYNDEVASVTPTFRTNADIDEWAGAPDTPPLSDEEYDRVQELYRDNFGIDRDDGMDALRSSVGGADLEETGMKSAGD
MGSDKIHHHHHHMEYNDVVEAVISALKKAHTELPEDVVTAIKKAYDSEENDIAKRNLEAILKNIEAAKKLGVPMCQDTGIPVFFVEVGRELCLDFDLKEAIVEGVRKATAEIPLRPNAVHPITRENSGDNTGLGIPQINVELVKGDELRMVVMPKGAGSENVSALKMMLPTQVDKIKDFVVETVKNAGGKPCPPIFVGVGVGSTFDGAAKLAKKALLRNVLEMNDFELELLEAVNELGIGAMGLGGKYTALAVLVEFGHCHTASLPVAVNIQCWANRRAEVVLR
MGSDKIHHHHHHMFAHCDVNAFYASCQTAFRPDLKGRPVVVLSNNDGCVIARSAEAKPFVKMGEPYFKQKAAFLRHGVVAFSSNYELYADMSSRVMATLEELTPRCEIYSIDEAFCDVSGVRHCRDLTDFGREIRATVLQRTHLTLGVGIAQTKTLAKLANHAAKQWPRQTGGVVDLSCPQRQRKLMALLPVSEVWGIGRRIGKKLEAMGIGTVLQLAESDIRFIRKHFTVVLERTVRELRGEPCLALEEFAPAKQEIICSRSFGDRITAYEDMRQAICSYAARAAEKLRGEHQYCRFVSAFVKTSPFALNEPYYGNSASLKLLTPTQDSRDIIAAATSCLDAIWKAGHRYQKAGVMLGDFYSQGVAQLNLFDELAPRHNSARLMQVLDQLNAKNGRGALYFAGQGIQQQWQMKREMLSPRYTTRYGDLLRVR
MGSDKIHHHHHHMFCKVMKIGISCHHTYGGSGAVATELGKALAMKGHTVHFFSQAAPFRLGLYSRNIYCHEIEAMNYPLFETPYHSLALASKIAEVAFYEKLDVVHAHYAIPHAISAMLARQMLEEKCPAAECFRIVTTLHGTDITIVGADRSMSDAVRLAINKSDGVTAVSGYLRDETIRMFTPRKKIEVIHNFVDTAVFKRLPGRRDLLGLDGGKVVIHISNFRPVKRIMDVLAVFESIRREIPATLLLVGDGPDRSEAETWVRNYGIGDRVRFLGKLDDIVPLLSIADLMLMPSNVESFGLAALEAMACGVPVVVTDAGGFPEFVRQGVDGFRHPHGDIEGMSRSALSILRDDEVWQRFSGAAANQAGRFKTALKVKEYEAFYRRLIDEARERKAQ
MGSDKIHHHHHHMFKRKVISFDIGSKNIKLVEGKCDGDKVIVTNMDMIETPKNSMNDGSIVDINLIAEAVRKLIDKVSTRTKNVVFTSQSTSIITRTVEIPWAKEKDMKSMIKYDIEQYLPIDLNEYIIKHKVIDEFQKEEVKMVRANVVVYPKKMAKAYWSLVEELELKPMALEVSLSAMEKILSSKDIITINEKDYQKEDTIAIVDIGSDEIEMNIIANGNLEFTRVLMGGGAYIDSSISNELSVDMDVAEEKKIIFGDLTLDNFSGEKQIVNEAMKNVIDRWNSEILRMLDYFKNKNKDKQIKKVYVHGGTSQIPGLCQYMKNSLGISVELIKNISTVSLDKKLEDKDITNYINAIGSIIM
MGSDKIHHHHHHMFLAGAFIAVGSLYAQSSDAEWQAGVAKLKETIQTNPAQANEEAEQLIKGKNKKNVELLVAIGEVYLKAGKLPEAQEYAALAKKVNGKSALASVLEGDIAFEQKNAGLASQKYEEAIYFDPSCTEAYLRYADIYKSANAALAIEKLEQLKAQEPSNTAVDKKLAEIYYLKNDFSKAAEAYSRFAMGPTATEEDLVKYAFALFLNHDFEKSLEVANMGLKKNARHAAFNRLAMYNYTDLKRFDEAIKAADAFFTESDKADYSYLDYMYYGHLLEALKKYDEAVGQYEKAIQLDPTKTDLYKNISSAYEQKNDYKKAISAYQKYYTSLDKEHQTPDLQFQFGRLYYGAGTQTDSLTINAEERKQALMAADSVFHSIAEAAPDSYLGNFWRARANSALDPETTLGLAKPFYEEVATLLESKNDPHYNSALIECYSYLGYYYLLAIENPALKAEAMANKEKSKEYWSKILAIDSTNATAKRALDGIK
MGSDKIHHHHHHMFLTKVSLLDHPESLPGYLSSLAIVEYLHEQPLEFRAPITVITGENGVGKSTLVEALAVGMRLNPSGGSRHANFGREGDIVSSLHQSLKLVRRENPRDAFFFRGETMYNVASYYEELMGEKNMHDLHKMSHGESVFAVIDRRFNNQGFFVLDEPEAGLSMLRQLELLGKLGNLARGGAQIIMATHSPILLAIPGAEILEITSSGVAKVNFEDAEAVRAAREFVADPRGTAAFLTAEEDHQ
MGSDKIHHHHHHMFLVCGEALFDIFTRADDGGSLNRLGFDAIAGGSPFNVAIGLRRLGVEAAFFAGLSTDYLGRRLRAVLEQETVNAEHLIEFDAPTTLAMVAVGSDGSPTYSFRGDGCADRQLRLEHLPELDERVRGIHVGSFSLVVQPIADTLLALVARESARRLISLDPNVRLNPAPDIQRWRTQIAAFAEHAHLIKVSDEDLHLLYPDSDPQQIAEGWLGKRTQLVIVTRGTQGASVFTRQHGTWSVPAKTVVTADTVGAGDTFQAALLTFLSERQLDTPQGLSTLSRETLDEMLNFAVGAAALTCTKVGPDLPYRHQLG
MGSDKIHHHHHHMFPPDKTLFLCLSALLLASCGTTSGKHRQPKPKQTVRQIQAVRISHIDRTQGSQELMLHSLGLIGTPYKWGGSSTATGFDCSGMIQFVYKNALNVKLPRTARDMAAASRKIPDSRLKAGDLVFFNTGGAHRYSHVGLYIGNGEFIHAPSSGKTIKTEKLSTPFYAKNYLGAHTFFTE
